Assay results reported in patent publication US20220195067A1 (LAMKAP BIO BETA, published 2022).
Numbering of substitutions follows the chain as printed.

T1: his-tagged recombinant huCEACAM3 (R&D Systems, #9868-CM) (human, UniProt P40198 35-155)
T1 construct: Bought reagent; also called rec. hCEACAM3; recombinant soluble human CEACAM3; not shown: His tag
T1 sequence (looked up): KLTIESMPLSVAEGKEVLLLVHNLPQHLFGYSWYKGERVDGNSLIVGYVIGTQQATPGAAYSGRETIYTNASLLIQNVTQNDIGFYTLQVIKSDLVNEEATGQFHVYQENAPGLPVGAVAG

T2: human CEACAM5 on CEACAM5-expressing cancer cell lines (human, UniProt P06731 35-685)
T2 construct: whole, on cells; also called CEACAM5 on SK-CO-1, MKN-45, HPAF-II, SNU-C1, Ls174T, LoVo cells
T2 sequence (looked up): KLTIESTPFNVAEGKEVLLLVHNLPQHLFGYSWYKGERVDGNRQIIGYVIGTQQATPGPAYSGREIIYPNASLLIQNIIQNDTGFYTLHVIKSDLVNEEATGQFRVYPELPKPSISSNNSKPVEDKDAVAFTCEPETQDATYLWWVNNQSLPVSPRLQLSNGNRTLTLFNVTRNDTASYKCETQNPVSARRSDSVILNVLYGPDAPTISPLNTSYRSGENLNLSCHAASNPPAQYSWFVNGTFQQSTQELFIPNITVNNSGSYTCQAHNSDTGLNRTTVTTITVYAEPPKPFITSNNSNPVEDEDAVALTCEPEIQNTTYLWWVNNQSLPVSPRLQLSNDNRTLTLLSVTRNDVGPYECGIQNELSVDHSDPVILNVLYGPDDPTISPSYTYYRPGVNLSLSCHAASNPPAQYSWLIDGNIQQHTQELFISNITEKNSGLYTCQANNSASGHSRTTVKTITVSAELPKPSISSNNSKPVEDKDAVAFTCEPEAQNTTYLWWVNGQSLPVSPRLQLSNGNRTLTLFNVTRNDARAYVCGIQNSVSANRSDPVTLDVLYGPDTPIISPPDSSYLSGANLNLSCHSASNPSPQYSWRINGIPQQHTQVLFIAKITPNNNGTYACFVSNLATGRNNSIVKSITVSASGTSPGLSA

B1: K2AC84 (bispecific antibody, human IgG1, kappa, lambda)
heavy: not shown
light 1: QSVLTQPPSVSAAPGQKVTISCSGSSSNIGIGLVSWYQQLPGTAPKLLIYNVNTRPSGIPDRFSGSKSGTSATLGITGLQTGDEADYYCGTWDFSYRVDFGGGTKLTVLGQPKAAPSVTLFPPSSEELQANKATLVCLISDFYPGAVTVAWKADSSPVKAGVETTTPSKQSNNKYAASSYLSLTPEQWKSHRSYSCQVTHEGSTVEKTVAPTECS
light 2: not shown
notes: Kappa-lambda body; also called CD47xCEACAM5 bispecific antibody K2AC84; AC84 (CEACAM5 arm)
B2: K2AC22 (bispecific antibody, human IgG1, kappa, lambda)
heavy: not shown
light 1: B1 light 1 with G30A, I31N, L33I, N51F, V52D, T54L, R97G, V98I, D99V
light 2: not shown
notes: Kappa-lambda body, human IgG1, one arm for CEACAM5 and one for CD47; comparison antibody from WO2019234576; also called state of the art bispecific CEAxCD47 antibody K2AC22; CD47xCEACAM5 bispecific antibody K2AC22
B3: K2AC100 (bispecific antibody, human IgG1, kappa, lambda)
heavy: not shown
light 1: B1 light 1 with I31Y, V52G, T54I
light 2: not shown
notes: Kappa-lambda body; also called CD47xCEACAM5 bispecific antibody K2AC100; AC100 (CEACAM5 arm)

Key:
[1] = target: T1, his-tagged recombinant huCEACAM3 (R&D …); test: BLI (Octet), his-tagged CEACAM3 on HIS1K biosensor, antibody as analyte
Procedure: The affinity of the anti-human CEACAM5 arms of the CD47×CEACAM5 bispecific antibodies of the invention for recombinant soluble human CEACAM3 was determined using the Bio-Layer Interferometry (BLI) technology and an OctetRED96 instrument. HIS1K biosensors (Sartorius), loaded with an anti-His tag antibody, were used to capture his-tagged recombinant huCEACAM3 (R&D Systems, #9868-CM). The measurement was performed at 30° C. After hydration, pre-conditioning and a baseline step in Kinetic buffer (PBS, 0.002% Tween 20, 0.01% BSA, Kathon; Sartorius), biosensors were loaded for 5 min with the recombinant huCEACAM3 at 5 μg/mL in Kinetic buffer. Then, biosensors were dipped into a serial dilution of k bodies, starting at 667 nM with a 2× dilution factor. The association and dissociation phases were monitored for 60 seconds and 120 seconds respectively. Biosensors were regenerated using 10 mM glycine pH 1.7. A standard acquisition rate was applied (5.0 Hz, averaging by 20). Curves were processed with a double reference subtraction, a Y alignment on the baseline and an interstep correction. The affinity was measured applying a 1:1 global fitting model on the full association step and the first 5 seconds of the dissociation step.

[2] = target: T2, human CEACAM5 on CEACAM5-expressing …; test: flow cytometry on SK-CO-1 cells (carry CEACAM5 and CD47), PE anti-human IgG Fc
Procedure: (§1) The binding of CD47×CEACAM5 bispecific antibodies was tested on CEACAM5-expressing human gastric adenocarcinoma cells (e.g. MKN-45), on CEACAM5-expressing human colorectal cancer cells (SK-CO-1, SNU-C1, Ls174T, and LoVo), and on CEACAM5-expressing pancreatic adenocarcinoma cells (HPAF-II).
(§2) Cells were harvested, counted, checked for viability and resuspended at 3×10⁶ cells/ml in FACS buffer (PBS 2% BSA, 0.1% NaN3). 100 μl of the cell suspension was distributed in V-bottom 96-well plates (3×10⁵ cells/well). The supernatant was removed by centrifugation 3 minutes at 4° C., 1300 rpm. Increasing concentrations of the antibody according to the invention were then added into the wells and incubated for 15 minutes at 4° C. Cells were washed twice with cold FACS buffer and re-incubated for further 15 minutes at 4° C. with the PE (R-phycoerythrin)-conjugated mouse anti-human IgG Fc secondary antibody (SouthernBiotech, pre-diluted 1:100 in FACS buffer). Cells were washed twice with cold FACS buffer and resuspended in 300 μl FACS buffer with 1:15000-diluted SytoxBlue (Life Technologies). Fluorescence, specifically mean fluorescence […] (MFI), was determined using a Cytoflex […] flow cytometer. Binding curves and […] and Emax values were obtained and calculated using GraphPad Prism7 software.

[3] = target: T2, human CEACAM5 on CEACAM5-expressing …; test: flow cytometry on HPAF-II cells (carry CEACAM5 and CD47), PE anti-human IgG Fc
Procedure: as §1, §2

[4] = target: T2, human CEACAM5 on CEACAM5-expressing …; test: flow cytometry on Ls174T cells (carry CEACAM5 and CD47), PE anti-human IgG Fc
Procedure: as §1, §2

[5] = target: T3, human CD47 expressed at the surface of MKN-45 cells (human, UniProt Q08722 19-323); test: CD47/SIRPα blocking assay on MKN-45 cells (carry CD47 and CEACAM5), imaging of bound SIRPα-mouseFc
T3 construct: whole, on cells; MKN-45 cells express both CD47 and CEACAM5; also called hCD47
From the text: The cell-based assay monitoring the interaction of soluble SIRPa with human CD47 expressed at the surface of MKN-45 cells as described below was used for the detection of the blocking activity. Concentration-response experiments with bispecific antibodies according to the invention allowed determination of inhibition curves (see FIG. 4) and of IC50 values (see Table 12).
MKN-45 cancer cells, expressing both CD47 and CEACAM5, were stained with CFSE violet to allow the imaging system (CX5) to detect the cells. Briefly, 3'000 stained MKN-45 cells per well were seeded in a 384 optical well plate (Costar) and incubated for 50 minutes with increased concentrations of bispecific antibodies of the invention ([…] to 333 nM, in quadruplicates). Then, a fixed concentration of SIRPα-mouseFc premixed with anti-mouse IgG-Fc AF647 coupled antibody (Jackson Immunoresearch diluted 1:2000) was added at 50 ng/mL final. After an incubation of 3 hours and 30 minutes, images of the fluorescence signals emitted by the detected bound SIRPa on the plates were acquired with the imaging system (CX5, Thermo Fisher). Fluorescence signals (mean fluorescence intensity MFI) were plotted according to the dose range tested, and IC50 was calculated by the software (Prism, GraphPad).

T3 sequence (Q08722 19-323): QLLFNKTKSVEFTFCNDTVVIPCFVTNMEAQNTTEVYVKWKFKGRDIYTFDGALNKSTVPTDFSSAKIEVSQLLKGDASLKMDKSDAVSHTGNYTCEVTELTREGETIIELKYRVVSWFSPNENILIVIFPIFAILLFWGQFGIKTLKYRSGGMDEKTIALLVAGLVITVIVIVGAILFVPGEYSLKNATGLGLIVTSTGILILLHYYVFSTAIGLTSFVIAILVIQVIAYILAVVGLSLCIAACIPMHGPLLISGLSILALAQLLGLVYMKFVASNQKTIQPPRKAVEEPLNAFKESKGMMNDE

Row | Binder | Kd [1] [nM] | EC50 [2] [nM] | Emax (MFI) [2] [MFI] | EC50 [3] [nM] | Emax (MFI) [3] [MFI] | EC50 [4] [nM] | Emax (MFI) [4] [MFI] | IC50 [5] [nM]
1 | B1 | 360 | 12 | 1e+06 | 8.7 | 1.27e+06 | 5.6 | 89000 | 0.04
2 | B2 | 10000 | 24 | 520000 | 19.3 | 670000 | 28 | 73000 | 1.2
3 | B3 | 700 | 14.7 | 900000 | 8 | 1.1e+06 | 4.5 | 70000 | 0.09
